Test [1] has as its target T1, human CD64 (ACROBiosystems, catalog number FCA-H52H2) (human, UniProt P12314 16-288).
T1 construct: also called CD64 protein; human CD64 receptor
The test can be described thus: BLI, OctetRED 96, antibody on FAB2G sensor.

Test [2] addresses S protein of Wuhan-Hu-1 on pseudovirus (SARS-CoV-2 Wuhan-Hu-1 strain, UniProt P0DTC2 14-1273). The test can be described thus: cell-based or functional assay.
Test [3] concerns the target T1, human CD64 (ACROBiosystems, catalog …).
For test [4], the target named is Spike S1+S2 protein of Wuhan-Hu-1 (Yiqiao Shenzhou / SB, 40589-V08B1) (SARS-CoV-2 Wuhan-Hu-1 strain, UniProt P0DTC2 16-1213).
Test [5] has as its target S protein of SARS-CoV-2 true virus, strain BetaCoV/Beijing/IMEBJ01/2020 (SARS-CoV-2 BetaCoV/Beijing/IMEBJ01/2020). Put plainly: cell-based or functional assay.

T1 sequence (P12314 16-288 limits assumed): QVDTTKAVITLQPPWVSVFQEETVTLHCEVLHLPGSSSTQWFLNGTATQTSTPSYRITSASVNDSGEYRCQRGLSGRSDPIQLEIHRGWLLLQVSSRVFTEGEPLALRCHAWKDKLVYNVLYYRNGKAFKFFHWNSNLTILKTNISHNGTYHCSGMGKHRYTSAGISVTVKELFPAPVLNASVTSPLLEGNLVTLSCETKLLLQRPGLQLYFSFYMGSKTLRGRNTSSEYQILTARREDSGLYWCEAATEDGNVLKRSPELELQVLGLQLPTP

B1: CA530 (antibody)
heavy: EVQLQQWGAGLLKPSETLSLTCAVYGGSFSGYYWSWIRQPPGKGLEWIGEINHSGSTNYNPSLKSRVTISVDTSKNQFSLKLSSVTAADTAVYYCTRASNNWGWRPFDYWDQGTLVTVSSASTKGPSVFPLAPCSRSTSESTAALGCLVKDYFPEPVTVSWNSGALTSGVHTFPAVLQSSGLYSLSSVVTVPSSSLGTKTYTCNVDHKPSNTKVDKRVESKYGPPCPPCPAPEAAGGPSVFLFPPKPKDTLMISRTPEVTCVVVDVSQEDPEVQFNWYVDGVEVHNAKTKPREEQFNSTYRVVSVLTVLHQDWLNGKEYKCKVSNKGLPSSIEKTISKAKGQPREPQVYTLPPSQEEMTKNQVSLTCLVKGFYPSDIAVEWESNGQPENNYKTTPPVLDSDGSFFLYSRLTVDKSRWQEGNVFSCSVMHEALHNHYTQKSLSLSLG
light: DIVMTQTPLSLPVTLGQPASISCRSSQSLVHSDGNTYLNWFQQRPGQSPRRLIYKVSNRDSGVPDRFSGSGSGTDFTLKISRVEAEDVGVYYCMQGTHWPRTFGQGTKVEIKRTVAAPSVFIFPPSDEQLKSGTASVVCLLNNFYPREAKVQWKVDNALQSGNSQESVTEQDSKDSTYSLSSTLTLSKADYEKHKVYACEVTHQGLSSPVTKSFNRGEC
notes: copies: 2 + 2
Take B1: the binding result in test [1] is “no binding”. Moreover, the “IC50(nM), pseudovirus neutralisation on 293T-ACE2 cells (Luciferase RLU)” value (shortened to “IC50(nM), pseudovirus neutralisation”) in test [2] turned out to be 0.11 nM.

B2: IgG4 wild-type control antibody (antibody)
heavy: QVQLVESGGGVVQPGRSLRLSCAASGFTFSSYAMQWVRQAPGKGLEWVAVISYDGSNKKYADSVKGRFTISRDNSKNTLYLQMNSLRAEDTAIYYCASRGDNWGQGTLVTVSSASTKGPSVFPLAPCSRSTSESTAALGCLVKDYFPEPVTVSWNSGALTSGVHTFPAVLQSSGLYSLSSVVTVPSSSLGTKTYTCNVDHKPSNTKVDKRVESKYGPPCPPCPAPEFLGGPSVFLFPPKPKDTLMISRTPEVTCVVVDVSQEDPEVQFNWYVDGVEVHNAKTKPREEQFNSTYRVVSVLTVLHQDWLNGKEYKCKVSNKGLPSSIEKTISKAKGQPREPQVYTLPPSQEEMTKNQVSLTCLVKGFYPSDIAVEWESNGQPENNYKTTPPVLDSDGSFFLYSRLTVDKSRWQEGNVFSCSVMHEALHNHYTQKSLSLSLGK
light: DIVMTQSPSSLSASVGDRVTITCRASQGIRNDLGWYQQKPGKAPKLLIYAASSLQSGVPSRFSGSGSGTDFTLTISSLQPEDFATYYCLQDYNYPRTFGQGTKVEIKRTVAAPSVFIFPPSDEQLKSGTASVVCLLNNFYPREAKVQWKVDNALQSGNSQESVTEQDSKDSTYSLSSTLTLSKADYEKHKVYACEVTHQGLSSPVTKSFNRGEC
What is called Kd is the equilibrium constant for the complex coming apart. A lower Kd goes with tighter binding. For the molecule B2, binding in test [3] was characterised by a dissociation constant (Kd) of 3410 pM.

B3: CA304 (antibody, V domains shown)
VH: EVQLQQWGAGLLKPSETLSLTCAVYGGSFSGYYWSWIRQPPGKGLEWIGEVNHSGSTNYNPSLKSRVTISVDTSKNQLSLKLNSVTAADTAVYYCARGNTMVRGVIIPFEYWDKGTLVTVSS
VL: DIVMTQTPLSLPVTLGQPASISCRSSQSLVHSDGNTYLNWFQQRPGQSPRRLIYKVSNRDSGVPDRFSGSGAGTDFTLKISRVEAEDVGVYYCTQATQFPFTFGPGTKVDIKR
By IC50 is commonly meant the point on the concentration scale where inhibition reaches its midpoint. High values mean weaker potency, low ones greater potency. B3: half-maximal inhibition in test [4] (IC50) required 176 pM. The “IC50, neutralisation of true virus on Vero cells (plaques)” value in test [5] is 0.08 µg/mL. In addition, in test [2], the “IC50(nM), pseudovirus neutralisation” value came out at 0.2 nM and the “IC50, pseudovirus neutralisation (method as 3.15)” value was determined as 821 pM.

B4: CA555 (antibody, V domains shown)
VH: EVQLQQWGAGLLKPSETLSLTCAVYGGSFSGYYWSWIRQPPGKGLEWIGEVNHSGSTNYNPSLKSRVTISVDTSKNQLSLKLNSVTAADTAVYYCARGNTMVRGVIIPFEYWDKGTLVTVSS
VL: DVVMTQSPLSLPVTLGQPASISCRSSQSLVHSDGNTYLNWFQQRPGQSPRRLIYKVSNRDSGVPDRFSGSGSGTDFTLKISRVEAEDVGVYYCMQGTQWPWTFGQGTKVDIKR
As for B4, in test [4], it took 187 pM to reach half-maximal inhibition (IC50). Further, in test [2], the “IC50(nM), pseudovirus neutralisation” value turned out to be 0.98 nM and the “IC50, pseudovirus neutralisation (method as 3.15)” value worked out at 328 pM.

The record behind these values is patent WO2021244601A1 (dated 2021).
